The results in this text go back to ChEMBL document CHEMBL4229398, “Activities of recombinant human bleomycin hydrolase on bleomycins and engineered analogues revealing new opportunities to overcome bleomycin-induced pulmonary toxicity” (Bioorg Med Chem Lett, 2018).

Assay type in all cases: ADME
Data set [1] concerns the target T1, Bleomycin hydrolase (Homo sapiens, UniProt Q13867).
T1 sequence (Q13867 whole entry): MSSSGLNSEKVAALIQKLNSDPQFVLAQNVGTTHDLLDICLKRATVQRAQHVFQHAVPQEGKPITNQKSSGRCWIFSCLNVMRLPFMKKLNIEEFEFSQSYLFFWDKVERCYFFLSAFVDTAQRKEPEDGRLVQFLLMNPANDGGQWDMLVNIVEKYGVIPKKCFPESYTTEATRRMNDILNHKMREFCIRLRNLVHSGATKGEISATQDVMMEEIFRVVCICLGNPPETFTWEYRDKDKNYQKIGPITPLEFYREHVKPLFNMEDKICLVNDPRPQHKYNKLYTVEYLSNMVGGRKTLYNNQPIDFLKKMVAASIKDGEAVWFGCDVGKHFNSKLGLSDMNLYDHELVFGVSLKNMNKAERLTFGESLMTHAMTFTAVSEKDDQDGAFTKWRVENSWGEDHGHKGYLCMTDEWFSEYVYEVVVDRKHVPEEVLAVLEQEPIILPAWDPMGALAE
The experiment in a line: (§1) Substrate activity at recombinant human N-terminal His6-tagged BLMH expressed in Escherichia coli BL21(DE3) measured after 1 hr by HPLC-based Michaelis-Menten plot analysis.

The target of data set [2] is T1, Bleomycin hydrolase. Put plainly: Substrate activity at recombinant human N-terminal His6-tagged BLMH expressed in Escherichia coli BL21(DE3) assessed as Kcat to Km ratio measured after 1 hr by HPLC-based Michaelis-Menten plot analysis.
The target of data set [3] is T1, Bleomycin hydrolase. Put plainly: (§2) Substrate activity at recombinant human BLMH expressed in baculovirus infected Sf9 insect cells assessed as Kcat to Km ratio.
For data set [4], the target named is T1, Bleomycin hydrolase. The experiment in a line: Substrate activity at recombinant human N-terminal His6-tagged BLMH expressed in Escherichia coli BL21(DE3) assessed as Kcat to Km ratio measured after 1 hr by HPLC-based Michaelis-Menten plot analysis relative to BLM B2.
Substrate in data set [5]: Cc1c(N)nc([C@H](CC(N)=O)NC[C@H](N)C(N)=O)nc1C(=O)N[C@H](C(=O)N[C@H](C)[C@@H](O)[C@H](C)C(=O)N[C@H](C(=O)NCCc1nc(-c2nc(C(=O)NCCCCNC(=N)N)cs2)cs1)[C@@H](C)O)[C@@H](O[C@@H]1O[C@@H](CO)[C@@H](O)[C@H](O)[C@@H]1O[C@H]1O[C@H](CO)[C@@H](O)[C@H](OC(N)=O)[C@@H]1O)c1c[nH]cn1
Described as §2.

Substrate in data set [6]: Cc1c(N)nc([C@H](CC(N)=O)NC[C@H](N)C(N)=O)nc1C(=O)N[C@H](C(=O)N[C@H](C)[C@@H](O)[C@H](C)C(=O)N[C@H](C(=O)NCCc1nc(-c2nc(C(=O)NCCCCNC(=N)N)cs2)cs1)[C@@H](C)O)[C@@H](O[C@@H]1O[C@@H](CO)[C@@H](O)[C@H](O)[C@@H]1O[C@H]1O[C@H](CO)[C@@H](O)[C@H](OC(N)=O)[C@@H]1O)c1c[nH]cn1
The data set is described as §1.

Substrate in data set [7]: [H][C@]1(O[C@@H]2[C@H](O[C@@H](c3c[nH]cn3)[C@H](NC(=O)c3nc([C@H](CC(N)=O)NC[C@H](N)C(N)=O)nc(N)c3C)C(=O)N[C@H](C)[C@@H](O)[C@H](C)C(=O)N[C@H](C(=O)NCCc3nc(-c4nc(C(=O)NCCC(=N)N)cs4)cs3)[C@@H](C)O)O[C@@H](CO)[C@@H](O)[C@@H]2O)O[C@H](CO)[C@@H](O)[C@H](OC(N)=O)[C@@H]1O
The data set is described as §1.

Substrate in data set [8]: [H][C@]1(O[C@@H]2[C@H](O[C@@H](c3c[nH]cn3)[C@H](NC(=O)c3nc([C@H](CC(N)=O)NC[C@H](N)C(N)=O)nc(N)c3C)C(=O)N[C@H](C)[C@@H](O)CC(=O)N[C@H](C(=O)NCCc3nc(-c4nc(C(=O)NCCCC(N)CC(=O)NCCCNCCCCN)cs4)cs3)[C@@H](C)O)O[C@@H](CO)[C@@H](O)[C@@H]2O)O[C@H](CO)[C@@H](O)[C@H](OC(N)=O)[C@@H]1O
The description is as §1.

Substrate in data set [9]: [H][C@]1(O[C@@H]2[C@H](O[C@@H](c3c[nH]cn3)[C@H](NC(=O)c3nc([C@H](CC(N)=O)NC[C@H](N)C(N)=O)nc(N)c3C)C(=O)N[C@H](C)[C@@H](O)[C@H](C)C(=O)N[C@H](C(=O)NCCc3nc(-c4nc(C(=O)NCCC[S+](C)C)cs4)cs3)[C@@H](C)O)O[C@@H](C)[C@@H](O)[C@@H]2O)O[C@H](CO)[C@@H](O)[C@H](OC(N)=O)[C@@H]1O
Described as §1.

Substrate in data set [10]: [H][C@]1(O[C@@H]2[C@H](O[C@@H](c3c[nH]cn3)[C@H](NC(=O)c3nc([C@H](CC(N)=O)NC[C@H](N)C(N)=O)nc(N)c3C)C(=O)N[C@H](C)[C@@H](O)CC(=O)N[C@H](C(=O)NCCc3nc(-c4nc(C(=O)NCCCC(N)CC(=O)NCCCNCCCCN)cs4)cs3)[C@@H](C)O)O[C@@H](C)[C@@H](O)[C@@H]2O)O[C@H](CO)[C@@H](O)[C@H](OC(N)=O)[C@@H]1O
The description is as §1.

Substrate in data set [11]: [H][C@]1(O[C@@H]2[C@H](O[C@@H](c3c[nH]cn3)[C@H](NC(=O)c3nc([C@H](CC(N)=O)NC[C@H](N)C(N)=O)nc(N)c3C)C(=O)N[C@H](C)[C@@H](O)[C@H](C)C(=O)N[C@H](C(=O)NCCc3nc(-c4nc(C(=O)NCCC(=N)N)cs4)cs3)[C@@H](C)O)O[C@@H](C)[C@@H](O)[C@@H]2O)O[C@H](CO)[C@@H](O)[C@H](OC(N)=O)[C@@H]1O
The data set is described as §1.

By Km is commonly meant the substrate concentration at which the rate is half of its maximum. Take BLEOMYCIN: at Bleomycin hydrolase [1], the Kcat turned out to be 4 s⁻¹ and the Km was 592 µM. Also, the Kcat/Km at Bleomycin hydrolase [2] is given as 6.7 ×10⁻³ /microM/s. Besides, the Kcat/Km at Bleomycin hydrolase [3] is 5000 M⁻¹ s⁻¹. For the same molecule, the “fold change (FC)” value at Bleomycin hydrolase [4] was determined as 0.12.
`Cc1c(N)nc([C@H](CC(N)=O)NC[C@H](N)C(N)=O)nc1C(=O)N[C@H](C(=O)N[C@H](C)[C@@H](O)[C@H](C)C(=O)N[C@H](C(=O)NCCc1nc(-c2nc(C(=O)NCCC[S+](C)C)cs2)cs1)[C@@H](C)O)[C@@H](O[C@@H]1O[C@@H](C)[C@@H](O)[C@H](O)[C@@H]1O[C@H]1O[C@H](CO)[C@@H](O)[C@H](OC(N)=O)[C@@H]1O)c1c[nH]cn1`: at Bleomycin hydrolase [4], the “fold change (FC)” value is on record as 0.11.
Still for that read-out and setting: then `Cc1c(N)nc([C@H](CC(N)=O)NC[C@H](N)C(N)=O)nc1C(=O)N[C@H](C(=O)N[C@H](C)[C@@H](O)CC(=O)N[C@H](C(=O)NCCc1nc(-c2nc(C(=O)NCCCC(N)CC(=O)NCCCNCCCCN)cs2)cs1)[C@@H](C)O)[C@@H](O[C@@H]1O[C@@H](C)[C@@H](O)[C@H](O)[C@@H]1O[C@H]1O[C@H](CO)[C@@H](O)[C@H](OC(N)=O)[C@@H]1O)c1c[nH]cn1` (stereo partly drawn), with 0.06; and `Cc1c(N)nc([C@H](CC(N)=O)NC[C@H](N)C(N)=O)nc1C(=O)N[C@H](C(=O)N[C@H](C)[C@@H](O)[C@H](C)C(=O)N[C@H](C(=O)NCCc1nc(-c2nc(C(=O)NCCC(=N)N)cs2)cs1)[C@@H](C)O)[C@@H](O[C@@H]1O[C@@H](C)[C@@H](O)[C@H](O)[C@@H]1O[C@H]1O[C@H](CO)[C@@H](O)[C@H](OC(N)=O)[C@@H]1O)c1c[nH]cn1`, with 0.28; and `Cc1c(N)nc([C@H](CC(N)=O)NC[C@H](N)C(N)=O)nc1C(=O)N[C@H](C(=O)N[C@H](C)[C@@H](O)CC(=O)N[C@H](C(=O)NCCc1nc(-c2nc(C(=O)NCCCC(N)CC(=O)NCCCNCCCCN)cs2)cs1)[C@@H](C)O)[C@@H](O[C@@H]1O[C@@H](CO)[C@@H](O)[C@H](O)[C@@H]1O[C@H]1O[C@H](CO)[C@@H](O)[C@H](OC(N)=O)[C@@H]1O)c1c[nH]cn1` (stereo partly drawn), with 0.06.
Same read-out and setting: then `Cc1c(N)nc([C@H](CC(N)=O)NC[C@H](N)C(N)=O)nc1C(=O)N[C@H](C(=O)N[C@H](C)[C@@H](O)[C@H](C)C(=O)N[C@H](C(=O)NCCc1nc(-c2nc(C(=O)NCCC(=N)N)cs2)cs1)[C@@H](C)O)[C@@H](O[C@@H]1O[C@@H](CO)[C@@H](O)[C@H](O)[C@@H]1O[C@H]1O[C@H](CO)[C@@H](O)[C@H](OC(N)=O)[C@@H]1O)c1c[nH]cn1`, with 0.19.

B1: Bleomycin hydrolase (Homo sapiens) (protein)
chain: MSSSGLNSEKVAALIQKLNSDPQFVLAQNVGTTHDLLDICLKRATVQRAQHVFQHAVPQEGKPITNQKSSGRCWIFSCLNVMRLPFMKKLNIEEFEFSQSYLFFWDKVERCYFFLSAFVDTAQRKEPEDGRLVQFLLMNPANDGGQWDMLVNIVEKYGVIPKKCFPESYTTEATRRMNDILNHKMREFCIRLRNLVHSGATKGEISATQDVMMEEIFRVVCICLGNPPETFTWEYRDKDKNYQKIGPITPLEFYREHVKPLFNMEDKICLVNDPRPQHKYNKLYTVEYLSNMVGGRKTLYNNQPIDFLKKMVAASIKDGEAVWFGCDVGKHFNSKLGLSDMNLYDHELVFGVSLKNMNKAERLTFGESLMTHAMTFTAVSEKDDQDGAFTKWRVENSWGEDHGHKGYLCMTDEWFSEYVYEVVVDRKHVPEEVLAVLEQEPIILPAWDPMGALAE
For orientation: kcat/Km means the second-order rate constant that governs catalysis at low substrate concentration. A word on the kcat: it is the maximal rate divided by the concentration of active sites. For B1, the kcat/Km amounted to 12000 M⁻¹ s⁻¹ in data set [5]; 11000 M⁻¹ s⁻¹ in data set [7]; 3200 M⁻¹ s⁻¹ in [8]; 6100 M⁻¹ s⁻¹ in [9]; 3500 M⁻¹ s⁻¹ in data set [10]; 16000 M⁻¹ s⁻¹ in data set [11]. Besides, the Km in [6] came out at 190 µM; in [7], 854 µM; in data set [8], 743 µM; in data set [9], 805 µM; in data set [10], 720 µM; in data set [11], 942 µM. The catalytic constant (kcat) in data set [6] was 11 s⁻¹; in data set [7] it was 9.8 s⁻¹; in data set [8], 2.4 s⁻¹; in [9], 4.9 s⁻¹; in [10], 2.5 s⁻¹; in [11], 15 s⁻¹.
